# Reference: patent US12448436B2, “Antibody specifically binding to GRP94 or antigen-binding fragment thereof, and uses thereof” (KOOKMIN UNIVERSITY INDUSTRY ACADEMY COOPERATION FOUNDATION, priority 2020, dated 2025)
# “Also recorded” adds a separate entry of the source.
# How the values were obtained:
# recombinant human GRP94 = biological target: T1, recombinant human GRP94 (Homo sapiens, UniProt P14625); experiment: ELISA binding to recombinant human GRP94; details: high specificity stated for human and rat antigens
# T1 construct: made in house; host or cells: Expi293 cells (pcDNA 3.4)
# Procedure: Each well of 96-well plates was coated with 0.1 μg of recombinant human GRP94 (rhGRP94), blocked with 3% (w/v) bovine serum albumin (BSA) in phosphate buffered saline (PBS) for 2 hours at 37° C., and incubated with 100 μL of GRP94 targeting IgG (20 μg/mL) for 2 hours at 37° C. The plates were washed thrice with 0.05% PBS-T, and 100 μL of a 500:1 dilution of the secondary antibody anti-human Fc Ab (Sigma-Aldrich) was added to each well. Incubation at 37° C. for 1 hour was followed by three rounds of washing with 0.05% PBS-T. Then, 100 μL of 3,3′,5,5′-tetramethylbenzidine (1-step ultra TMB) substrate solution was added to each well. Finally, optical densities were measured at 450 nm using a microplate reader (Synergy H1, BioTek).
# The four GRP94 IgGs (B5, E5, 2H5, and 3G7) of the present disclosure were measured for equilibrium dissociation constant (KD). In this regard, each well of 96-well plates was coated with 100 ng of rhGRP94 and blocked with 3% (w/v) bovine serum albumin (BSA) in PBS at 37° C. for 2 hours. Next, the plates were incubated with a concentration gradient of 0 nM to 500 nM of each clone for the GRP94 IgGs at 37° C. for 2 hours. The use of a secondary antibody and the measurement of optical density were conducted as described for the ELISA.
# After 96-well plates were coated with BSA, recombinant human GRP94, recombinant rat GRP94, and recombinant monkey GRP94, their binding affinity for each antibody (B5, E5, 2H5, or 3G7) was measured by ELISA.
# LoVo cells = experiment: In vitro CRC proliferation assay, LoVo; format: cell-based, human; details: 20 μg/mL; for cell index at the end point: 72 hours, MOCK 3.76±0.19; for cell growth inhibitory ability: end point, relative to the control PBS
# Procedure: The four anti-GRP94 human IgG antibodies B5, E5, 2H5, and 3G7 of the present disclosure were examined in vitro for effect on CRC cell proliferation. […] The culture medium was removed by suction and the cells were washed with 10 mL of phosphate buffered saline (hereinafter PBS). After removal of PBS by suction, the cells were treated 2 mL of TrypLE Express Enzyme at 37° C. for 3 minutes in a 5% CO2 incubator. Thereafter, the cells were added with 8 mL of the culture medium, transferred to 15-mL tube, and centrifuged at 500×g for 5 minutes. After removal of the supernatant, the cells were suspended in the culture medium. From a small portion of the cell suspension, the cells were counted using the Countess II Automated Cell Counter. […] The 96-well plates were mounted on the Incucyte Zoom system. With the microscope magnification set at 4×, images were collected at intervals of 2 hours for 72 hours. From the collected images, cell growth was monitored using the IncuCyte FLR live content imaging system (Essen Bioscience, Ann Arbor, MI, USA).
# [1] = system: HCT116 subcutaneous xenograft; experiment: Tumor growth inhibition by sole administration, colorectal xenograft model; format: in vivo, Balb/c nude mice; details: 10 mg/kg intravenous twice per week for six weeks; for tumor growth inhibition compared to PBS: n=9
# Description: For use in assaying in-vivo efficacy of the four antibodies of the present disclosure, a subcutaneous xenograft mouse model was established by injecting the metastatic colorectal cancer cell line HCT116 (5×10^6 cells) into 6-week-old Balb/c nude mice.
# [2] = In vivo hepatotoxicity and nephrotoxicity in colorectal xenograft model; set-up: species or system Balb/c nude mice; details: mouse, 10 mg/kg
# Procedure: To assay the four antibodies of the present disclosure for in vivo hepatotoxicity and nephrotoxicity, the same xenograft model as in Example 11 weighed every week. After six weeks of the experiment, GOT (glutamic oxaloacetic transaminase), GPT (glutamate pyruvate transaminase), and TBIL (total bilirubin) were measured for hepatotoxicity assay while BUN (blood urea nitrogen) and CRE (creatinine) were measured for nephrotoxicity assay. The results are depicted in FIGS. 27a and 27b.
# T1 sequence (P14625 22-803): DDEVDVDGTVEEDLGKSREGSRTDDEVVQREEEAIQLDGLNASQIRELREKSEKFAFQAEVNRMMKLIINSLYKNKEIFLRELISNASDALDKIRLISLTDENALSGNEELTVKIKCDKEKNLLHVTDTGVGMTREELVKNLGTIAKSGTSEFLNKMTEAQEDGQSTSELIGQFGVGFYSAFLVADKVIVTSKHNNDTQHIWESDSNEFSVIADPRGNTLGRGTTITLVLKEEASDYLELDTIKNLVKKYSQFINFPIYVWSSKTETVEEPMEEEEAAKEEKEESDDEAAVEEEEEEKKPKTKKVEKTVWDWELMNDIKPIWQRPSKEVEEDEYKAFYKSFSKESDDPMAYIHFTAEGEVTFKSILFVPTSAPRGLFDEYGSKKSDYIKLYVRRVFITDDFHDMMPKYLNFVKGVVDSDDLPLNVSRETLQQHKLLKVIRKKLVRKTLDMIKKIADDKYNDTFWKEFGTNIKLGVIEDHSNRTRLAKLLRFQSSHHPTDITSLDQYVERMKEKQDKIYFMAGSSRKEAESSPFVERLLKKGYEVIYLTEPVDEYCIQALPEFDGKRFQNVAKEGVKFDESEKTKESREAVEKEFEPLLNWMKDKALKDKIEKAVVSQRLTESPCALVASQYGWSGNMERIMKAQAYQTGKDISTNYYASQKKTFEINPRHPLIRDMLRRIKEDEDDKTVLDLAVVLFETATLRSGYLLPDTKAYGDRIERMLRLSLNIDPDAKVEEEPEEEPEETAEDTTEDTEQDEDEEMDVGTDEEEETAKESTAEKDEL
Molecule,binding to recombinant human GRP94 (recombinant human GRP94),cell index at the end point (LoVo cells),cell growth inhibitory ability (LoVo cells),tumor growth inhibition compared to PBS [1] [%],changes in body weight [2],"changes in serum levels of liver and kidney functional indices (GOT, GPT, TBIL, BUN, and CREA) [2]",inhibitory activity against tumor growth compared to the controls ([1]; controls PBS and hIgG)
"B5: anti-GRP94 human IgG antibody; CDRs SEQ ID NOS: 1 to 6, VH SEQ ID NO: 7, VL SEQ ID NO: 8 (antibody, V domains shown, Amino acid sequence of heavy chain variable of GRP94 B5; Amino acid sequence of light chain variable of GRP94 B5) VH: EVQLLESGGGLVQPGGSLRLSCAASGFTFSNYYMSWVRQAPGKGLEWVSGIYPNSGSTYYADSVKGRFTISRDNSKNTLYLQMNSLRAEDTAVYYCARDPLHPARFPFDYWGQGTLVTVSS VL: QSVLTQPPSASGTPGQRVTISCTGSSSNIGNNAVSWYQQLPGTAPKLLIYADSHRPSGVPDRFSGSKSGTSASLAISGLRSEDEADYYCGAWDASLNAYVFGGGTKLTVL",bind,2.69±0.04,statistically significant; also recorded: excellent inhibitory activity,30,no significant changes,no significant changes,–
"3G7: anti-GRP94 human IgG antibody; CDRs SEQ ID NOS: 25 to 30, VH SEQ ID NO: 31, VL SEQ ID NO: 32 (antibody, V domains shown, Amino acid sequence of heavy chain variable of GRP94 3G7; Amino acid sequence of light chain variable of GRP94 3G7) VH: EVQLLESGGGLVQPGGSLRLSCAASGFTFSNYSMSWVRQAPGKGLEWVSGIYYGSGNKYYADSVKGRFTISRDNSKNTLYLQMNSLRAEDTAVYYCAKNLASFDYWGQGTLVTVSS VL: QSVLTQPPSASGTPGQRVTISCSGSSSNIGSNSVNWYQQLPGTAPKLLIYSNSHRPSGVPDRFSGSKSGTSASLAISGLRSEDEADYYCGTWDSSLSGYVFGGGTKLTVL",bind,2.87±0.08,statistically significant; also recorded: excellent inhibitory activity,33,no significant changes,no significant changes,–
"E5: anti-GRP94 human IgG antibody; CDRs SEQ ID NOS: 9 to 14, VH SEQ ID NO: 15, VL SEQ ID NO: 16 (antibody, V domains shown, Amino acid sequence of heavy chain variable of GRP94 E5; Amino acid sequence of light chain variable of GRP94 E5) VH: EVQLLESGGGLVQPGGSLRLSCAASGFTFSNYAMSWVRQAPGKGLEWVSGISSSSGSTYYADSVKGRFTTSRDNSKNTLYLQMNSLRAEDTAVYYCARDRHPFSPNWFDYWGQGTLVTVSS VL: QSVLTQPPSASGTPGQRVTISCSGSPSNIGSNTVTWYQQLPGTAPKLLIYADSHRPSGVPDRFSGSKSGTSASLAISGLRSEDEADYYCASWDDSLNGYVFGGGTKLTVL",bind,2.73±0.22,statistically significant; also recorded: excellent inhibitory activity,–,no significant changes,no significant changes,did not exhibit inhibitory activity
